Source: patent US6875737 (TRUSTEES OF TUFTS COLLEGE, dated 2005)
Each block holds one binder with its values, some of them ahead of it. Numbered stars: 1 amine (or outer) side, 2 acyl side, 3 side chain; on linkers, the order of the positions; unused ones are H or OH. Square brackets hold non-standard residues; d marks the D form. Ends that are not written are not given here. * marks the point of attachment. εLys = N[C@@H](CCCCN[*:1])C(=O)[*:2]; Adipoyl = O=C(CCCCC(=O)[*:2])[*:1]; boroPro = OB(O)[C@@H]1CCCN1*

Assays:
Test in all cases: cell-based or functional assay
[1] = target: T1, T cell receptor of the PLP 139-151 specific T cell clone 5B8.G8.E6.H12
[2] = target: T cell receptor of the PLP 139-151 specific T cell clone SPL.C1.H2.F2
[3] = target: T2, T cell receptor of the PLP 139-151 specific T cell clone 4E3.B11.D9.H10.H6
[4] = target: T cell receptor of the PLP 139-151 specific T cell clone 2E5.G10.G5.E5
[5] = target: T cell receptor of the PLP 139-151 specific T cell clone 7A5.F10.G11
[6] = target: T1, T cell receptor of the PLP 139-151 …; remark: listed apart in the source
[7] = target: T2, T cell receptor of the PLP 139-151 …; remark: listed apart in the source
CD26 on H9 T cells = CD26 on H9 T cells (UniProt P27487 1-766, limits assumed)
Chain of CD26 on H9 T cells (P27487 whole entry): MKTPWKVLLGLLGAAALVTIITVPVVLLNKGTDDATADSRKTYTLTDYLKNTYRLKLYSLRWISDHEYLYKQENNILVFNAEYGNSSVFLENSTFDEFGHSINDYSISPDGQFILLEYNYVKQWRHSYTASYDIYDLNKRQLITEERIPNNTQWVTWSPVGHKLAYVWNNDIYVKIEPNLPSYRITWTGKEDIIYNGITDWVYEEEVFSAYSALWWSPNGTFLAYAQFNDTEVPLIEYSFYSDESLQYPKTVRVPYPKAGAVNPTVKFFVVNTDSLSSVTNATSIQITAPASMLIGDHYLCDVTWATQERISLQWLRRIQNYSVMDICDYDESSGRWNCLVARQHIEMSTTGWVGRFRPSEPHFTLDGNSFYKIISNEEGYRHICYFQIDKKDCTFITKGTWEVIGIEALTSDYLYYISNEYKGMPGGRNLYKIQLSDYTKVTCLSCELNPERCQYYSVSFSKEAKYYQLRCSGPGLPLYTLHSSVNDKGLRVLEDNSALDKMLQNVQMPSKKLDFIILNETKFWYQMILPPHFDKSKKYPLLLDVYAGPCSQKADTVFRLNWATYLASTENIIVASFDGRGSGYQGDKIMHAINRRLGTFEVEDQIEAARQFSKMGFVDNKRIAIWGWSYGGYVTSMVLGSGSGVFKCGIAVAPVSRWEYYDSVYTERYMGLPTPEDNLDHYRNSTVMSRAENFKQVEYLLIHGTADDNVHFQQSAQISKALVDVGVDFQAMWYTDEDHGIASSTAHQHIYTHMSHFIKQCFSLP

proliferation (thymidine uptake), antigen dose 0.1 µM [1]: 106 3H counts | proliferation (thymidine uptake), antigen dose 1 µM [1]: 349 3H counts | proliferation (thymidine uptake), antigen dose 10 µM [1]: 9180 3H counts | proliferation (thymidine uptake), antigen dose 100 µM [1]: 41100 3H counts | proliferation (thymidine uptake), antigen dose 0.1 µM [2]: 423 3H counts | proliferation (thymidine uptake), antigen dose 1 µM [2]: 107 3H counts | proliferation (thymidine uptake), antigen dose 10 µM [2]: 400 3H counts | proliferation (thymidine uptake), antigen dose 100 µM [2]: 809 3H counts | proliferation (thymidine uptake), antigen dose 0.1 µM [3]: 318 3H counts | proliferation (thymidine uptake), antigen dose 1 µM [3]: 125 3H counts | proliferation (thymidine uptake), antigen dose 10 µM [3]: 534 3H counts | proliferation (thymidine uptake), antigen dose 100 µM [3]: 1930 3H counts | proliferation (thymidine uptake), antigen dose 0.1 µM [4]: 101 3H counts | proliferation (thymidine uptake), antigen dose 1 µM [4]: 288 3H counts | proliferation (thymidine uptake), antigen dose 10 µM [4]: 70 3H counts | proliferation (thymidine uptake), antigen dose 100 µM [4]: 1510 3H counts | proliferation (thymidine uptake), antigen dose 0.1 µM [5]: 117 3H counts | proliferation (thymidine uptake), antigen dose 1 µM [5]: 222 3H counts | proliferation (thymidine uptake), antigen dose 10 µM [5]: 406 3H counts | proliferation (thymidine uptake), antigen dose 100 µM [5]: 2320 3H counts
Binder: HSLGKWLGHPDKF [Myelin proteolipid protein peptide PLP 139-151 (HSLGKWLGHPDKF)]

enhancement of the proliferative response against PLP 139-151 [6]: ~200 fold | enhancement of the proliferative response against PLP 139-151 [7]: ~2000 fold | proliferation (thymidine uptake), antigen dose 1 µM [1]: 22000 3H counts | proliferation (thymidine uptake), antigen dose 10 µM [1]: 53600 3H counts | proliferation (thymidine uptake), antigen dose 100 µM [1]: 34700 3H counts | proliferation (thymidine uptake), antigen dose 0.1 µM [2]: 681 3H counts | proliferation (thymidine uptake), antigen dose 1 µM [2]: 2530 3H counts | proliferation (thymidine uptake), antigen dose 10 µM [2]: 17500 3H counts | proliferation (thymidine uptake), antigen dose 100 µM [2]: 31600 3H counts | proliferation (thymidine uptake), antigen dose 0.1 µM [3]: 3690 3H counts | proliferation (thymidine uptake), antigen dose 1 µM [3]: 8580 3H counts | proliferation (thymidine uptake), antigen dose 10 µM [3]: 15800 3H counts | proliferation (thymidine uptake), antigen dose 100 µM [3]: 17600 3H counts | proliferation (thymidine uptake), antigen dose 0.1 µM [4]: 175 3H counts | proliferation (thymidine uptake), antigen dose 1 µM [4]: 7740 3H counts | proliferation (thymidine uptake), antigen dose 10 µM [4]: 26400 3H counts | proliferation (thymidine uptake), antigen dose 100 µM [4]: 36700 3H counts | proliferation (thymidine uptake), antigen dose 0.1 µM [5]: 187 3H counts | proliferation (thymidine uptake), antigen dose 1 µM [5]: 8200 3H counts | proliferation (thymidine uptake), antigen dose 10 µM [5]: 35500 3H counts | proliferation (thymidine uptake), antigen dose 100 µM [5]: 44000 3H counts
Binder: HSLGKWLGHPDKFAAAAAA-{εLys-boroPro}

augmentation of IL-2 production by anti-CD3 (OKT3) stimulated H9 cells (CD26 on H9 T cells): ≤ 4 fold
B1: KbP2-Adipate (di(L-Lysine-L-boroProline)adipate) (peptide)
peptide: Lys(Adipoyl)-[boroPro]
modifications: also: dimer: two Lys-boroPro joined by adipoyl linker between lysine ε-amino groups
